Data from the nanobody polyreactivity screen of Harvey et al. (2022).

Assay: yeast display, Sf9 membrane polyspecificity reagent, FACS + sequencing; frameworks hold sequencing errors
Outline: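 Nanobodies came from a synthetic yeast display library in Saccharomyces cerevisiae BJ5465, induced with galactose for 36–48 hours and stained for 1 hour at 4 °C with 10% biotinylated, detergent-solubilized Sf9 membrane reagent. Cells were enriched on streptavidin microbeads and then FACS-sorted, with low and high (top ~1%) gates set on anti-HA fluorescence for expression and streptavidin fluorescence for reagent binding. Each polyreactivity label reflects the gate a clone came from. Genes were amplified by colony PCR, sequenced by MiSeq 2 × 250 and filtered by CDR length.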
For “QVQLVESGGGLVQAGGSLRLICAASGRTFWNYAMGWYRQAPGKERELVAVIRFSDGSTYYADSVKGRFTISRDNAKNTVYLQMNSLKPEDTAVYYCAAKGPRRWGSGFDYWGQGTQVTVSS”, the “polyreactivity (PSR sort gate)” value was “low polyreactivity”. With “QVQLVESGGGLVQAGGSLRLICAASGRTFYNAMGWYRQAPGKERELVAAISSAGRTYYADSVKGRFTISRDNAKNTVYLQMNSLKPEDTAVYYCAATAFSYYPYHGDYWGQGTQVTVSS” the “polyreactivity (PSR sort gate)” value was “high polyreactivity”. In the case of “QVQLVESGGGLVQAGGSLRLICAASGRTFYSYAMAWYRQAPGQERELVAAISSGGTTYYADSVKGRFTISRDNAKNTVYLQMNSLKPEDTAVYYCATSRAWRYRSYYWGQGTQVTVSS”, the “polyreactivity (PSR sort gate)” value is reported as “high polyreactivity”. In the case of “QVQLVESGGGLVQAGGSLRLICAASGRTIDHYAMGWYRQAPGKERELVAAISTTGGSTYYADSVKGRFTISRDNAKNTVYLQMNSLKPEDTAVYYCAARGLRTGGYWGQGTQVTVSS”, the “polyreactivity (PSR sort gate)” value is reported as “high polyreactivity”. With “QVQLVESGGGLVQAGGSLRLICAASGRTNGVYVMGLYRQAPGKERELVAAIRKGVGSTYYADSVKGRFTISRDNAKNTVYLQMNSLKPEETAVYYCAADTRHYRYGYWGQGTQVTVSS” the “polyreactivity (PSR sort gate)” value was “low polyreactivity”. With “QVQLVESGGGLVQAGGSLRLICAASGSIFADYAMGWYRQAPGKERELVAAITGSGGRTYYADSVKGRFTISRDNAKNTVYLQMNSLKPEDTAVYYCAAYQVVWDPYTRYDYWGQGTQVTVSS” the “polyreactivity (PSR sort gate)” value was “low polyreactivity”. In the case of “QVQLVESGGGLVQAGGSLRLICAASGSIFAYYAMGWYRQAPGKERELVGTNYADSVKGRFTISRDNAKNTVYLQMNSLKPEDTAVYYCAASSRRYLWGFDYWGQGTQVTVSS”, the “polyreactivity (PSR sort gate)” value is reported as “low polyreactivity”. For “QVQLVESGGGLVQAGGSLRLICAASGSIFCTYAMGWYRQAPGKERELVAAITTSVGRTYYADSVKGRFTISRDNAKNTVYLHMNSLKPDDTAVYYCYAVRGGRYGLDYWGQGTHVTVSS”, the “polyreactivity (PSR sort gate)” value was “high polyreactivity”. In the case of “QVQLVESGGGLVQAGGSLRLICAASGSIFDKYARGWYRQEPGKERELVAAIDSGDTYYADSVKGRFTISRDNAKNTVYLQMNSLKPEDTAVYYCAADDVQYEYDYWGQGTQVTVSS”, the “polyreactivity (PSR sort gate)” value is reported as “low polyreactivity”. With “QVQLVESGGGLVQAGGSLRLICAASGSIFFSYAMGWYRQAPGKERELVAAIDYSGGGTYYADSVMGRFTISRDNAKNTVYLQMNSLKPEDTAVYYCNSDTEVWADTFISYRALNYWGQGTQVTVSS” the “polyreactivity (PSR sort gate)” value was “low polyreactivity”. With “QVQLVESGGGLVQAGGSLRLICAASGSIFFTYVMGWYRQSPGKERELVAAISSDDNTNYADSVKGRFTSSRDNAKNTVYLQMHSLKPEDTAVYYCNADTTRYPYYDYGYYDYDYWGQGTQVTVSS” the “polyreactivity (PSR sort gate)” value was “low polyreactivity”. For “QVQLVESGGGLVQAGGSLRLICAASGSIFLGYAMGWYRPAPGKERELVAAISTSGGGTYYADSVKGRFTISRDNAKNTVYLQMNSLKPEDTAVYYCNAVSHYKYDWGQGTQVTVSS”, the “polyreactivity (PSR sort gate)” value was “low polyreactivity”. With “QVQLVESGGGLVQAGGSLRLICAASGSIFRGYTMGWYRQAPGKERELVATISWSGGSTYYADSVKGRFTISRDNAKNTVYLQMNSLKPEDTAVYYCAAVWYLGIPYDYWGQGTQVTVSS” the “polyreactivity (PSR sort gate)” value was “high polyreactivity”. For “QVQLVESGGGLVQAGGSLRLICAASGSIFRRYAMGWYRQAPGKERELVARITIRGGSTYYADSVKGRFTISRDNAKNTVYLQMNSLKPEDTAVYYCNTVVPASSGGAYRRYYYLGQGTQVTVSS”, the “polyreactivity (PSR sort gate)” value was “high polyreactivity”. For “QVQLVESGGGLVQAGGSLRLICAASGSIFSIYAMGWYRQAPGKERELVAAITWGGGSTYYADSVKGRFTISRDNAKNTVYLQINSLKPEDTAVYDCAAESLTWYGTYYYWGQGTQVTVSS”, the “polyreactivity (PSR sort gate)” value was “high polyreactivity”. In the case of “QVQLVESGGGLVQAGGSLRLICAASGSIFSKYVMGWYREAPGKERDLVAAISWSGTRTYYADSVKGRFTISRDNAKNTVILQMNSMKAEDTAVYYCAARRLYAGHQYDYWGQGTIVTVSS”, the “polyreactivity (PSR sort gate)” value is reported as “high polyreactivity”. In the case of “QVQLVESGGGLVQAGGSLRLICAASGSIFTKYTMGWSRQAPGKERELVAAITLRGTSTYYADSVKGRFTISRDNAMNTVYLQMNSLIPEDTAFYYCNKLYSWVVAYDYWGQGTQVTVSS”, the “polyreactivity (PSR sort gate)” value is reported as “high polyreactivity”. With “QVQLVESGGGLVQAGGSLRLICAASGSIFVNNGMGWYRQAPGKERELVAAIRLSTGSTYYADSVKGRFPISRDNAKNTVYLQMNSLKPEDTAVYYCATRYYIWGNWGQGTQVTVSS” the “polyreactivity (PSR sort gate)” value was “high polyreactivity”. With “QVQLVESGGGLVQAGGSLRLICAASGSIFWGYAIGWFRPAPGKERELVAGITATGGSTYYADSVKGRFTISRDNAKNTVYLPMNSLKPEDTAVYYCAAEHGRLATYTWWVIYDYWGHGTQVTVSS” the “polyreactivity (PSR sort gate)” value was “low polyreactivity”. For “QVQLVESGGGLVQAGGSLRLICAASGSIFYGNTMGWYRQARGKERELVAAISSGGSTYYADSVKGRFTISRDNAKNSVYLQMNSLKPEDTAVYYCAREDYSHSFLTYDYWGQGSQVTVSS”, the “polyreactivity (PSR sort gate)” value was “low polyreactivity”. In the case of “QVQLVESGGGLVQAGGSLRLICAASGSIFYYNVMGWYRQAPGKEREWVAAIDIDGSTYYADSVNGRFTIARDNAKNTVYLQMNSLKPADTAVYYCNAQAPYWFSFYSDHKYDYWGLGTQVTVSS”, the “polyreactivity (PSR sort gate)” value is reported as “low polyreactivity”. In the case of “QVQLVESGGGLVQAGGSLRLICAASGSILGTYAMGWYRQAPGNDRELVAAISSSGRTSYADSVKGRFTISRDNAKNTVYLQMNSLKPEETAVYYCNASNYIFLINDPDAAPWLYDYWGQGSQVTVSS”, the “polyreactivity (PSR sort gate)” value is reported as “low polyreactivity”. In the case of “QVQLVESGGGLVQAGGSLRLICAASGSIVKNYAMGWYTQAPGKERELVAVISSGGSTNYADSVKGRFTISRDNAKYTVYLHMNSLIPEDTAVYSCAAERKSRGFWYDYWGQGTQVTVSS”, the “polyreactivity (PSR sort gate)” value is reported as “high polyreactivity”. In the case of “QVQLVESGGGLVQAGGSLRLICAASGSTFAGNTMGWYRQAPGKERELVATITSDGSTDYADSVKGRFTISRDNAKNTVYYQMNSLKAEDPAVYYCAKARGLSKMDSWGQGTQVTVSS”, the “polyreactivity (PSR sort gate)” value is reported as “low polyreactivity”. In the case of “QVQLVESGGGLVQAGGSLRLICAASGSTFARNAMGWYRQAPGKERELVAAITTRGSSTYYADSVKGRFTISRDNAKNTVYLQMNSLKPEDTAVYYCAADSRRSWYWGGYRQTGMGYWGQGTQLTVSS”, the “polyreactivity (PSR sort gate)” value is reported as “high polyreactivity”. With “QVQLVESGGGLVQAGGSLRLICAASGSTFDANAMGWYRQAPGKERELVAAITSNGGSTYYADSVKARFTISRDNAKNTVYLQMNSLKPEDTAVYYCATEQHTVQDYDFWGQGTQVTVSS” the “polyreactivity (PSR sort gate)” value was “low polyreactivity”. For “QVQLVESGGGLVQAGGSLRLICAASGSTFESYAMGWYRQAPGKERELVAAISRRGGRTYYADSVKGRFTISRDNAMNTVSLQMYSLKPEDTAVYYCATDSSYYGSDDYWGQGTQVTVSS”, the “polyreactivity (PSR sort gate)” value was “high polyreactivity”. For “QVQLVESGGGLVQAGGSLRLICAASGSTFGVNAMGWYRQAPGKERELVAVITRSGGSTYYADSVKGRFTISRDNAKNTVYLEMNSLKPEDTAVYYCAKSGVVDWGQGTQVTVSS”, the “polyreactivity (PSR sort gate)” value was “low polyreactivity”. With “QVQLVESGGGLVQAGGSLRLICAASGSTFGVYDMGWYRKAPGKERELVAAISWRGITYYADSVKGRFTISRDNAKNTVYLQMNSLNPEDTAVYFCASYEWLAYTSAWYGYWGKGTQVTVSS” the “polyreactivity (PSR sort gate)” value was “high polyreactivity”. With “QVQLVESGGGLVQAGGSLRLICAASGSTFGYYTMGWYRQAPGKERELVAAISSGGSRTNYADSVKGRFTISRDNAKNTVYLQMNSLIPEDTAVYYCAAGPVSYVRYGSEYDYWGQGTQVTVSS” the “polyreactivity (PSR sort gate)” value was “high polyreactivity”. For “QVQLVESGGGLVQAGGSLRLICAASGSTFKYNAMGWYRQAPGKERELVAAITYSGSSTYYADSVKGRFTISRDNAKNTVYLQMNSLKPEDTAVYYCAAGDLAKYRSYSYYYWGQGTQVTLSS”, the “polyreactivity (PSR sort gate)” value was “high polyreactivity”. With “QVQLVESGGGLVQAGGSLRLICAASGSTFLKYAMGWYRQAPGKERELVAAITYRGGTTYYADSVKGRFTISRDNAKNTVYLQMNSLKPEDTAVYYCAARGYKRMGYWGQGTQVTVSS” the “polyreactivity (PSR sort gate)” value was “high polyreactivity”. In the case of “QVQLVESGGGLVQAGGSLRLICAASGSTFNIYAMGWYRQAPGKERELVAAITSSGGSTYYAESVKGRFTISRDNGKNTVYLQMNSLKPEYTAVYYCNTDQYSPYEYSSFDSWGQGSQVTVSS”, the “polyreactivity (PSR sort gate)” value is reported as “low polyreactivity”. For “QVQLVESGGGLVQAGGSLRLICAASGSTFRNYAMGWYRQAPGKEREFVAAITWSGGRTYYADSVKGRFTISRDNAKNTVYLQMNSLKPEDTAVYYCAARYRRGYDYWGQGTQVTVSS”, the “polyreactivity (PSR sort gate)” value was “high polyreactivity”. In the case of “QVQLVESGGGLVQAGGSLRLICAASGSTFRYYAMVLYRQAPGKERELVAAISGTGSTYYADSVKGRFTISRDNAKNTVYLQMNSLKPEDTAVYYCAAYPRASQRYNYWGQGTQVTVSS”, the “polyreactivity (PSR sort gate)” value is reported as “high polyreactivity”. In the case of “QVQLVESGGGLVQAGGSLRLICAASGSTFTGYAMGWYRQAPGKERELVAAISISGGRTFYADSVKGRFTISRDNAKNTVYLQMNSLKPEDTAVYYCAAFLRGSKYSFDYWGQGTQVTVSS”, the “polyreactivity (PSR sort gate)” value is reported as “high polyreactivity”. With “QVQLVESGGGLVQAGGSLRLICAASGSTFVLYAMGWYRQAPGKERELVAAITKRGGNTYYADSVKGRFTISRDNAKNTVYLQMNSLKPEDTAVYYCAADHVRSPFDSWGQGTQVTVSS” the “polyreactivity (PSR sort gate)” value was “low polyreactivity”. With “QVQLVESGGGLVQAGGSLRLICAASGSTFVPYTMAWYRQAPGKERELVAAISGSGGTDYADSVKGRFTISRDNGKNTVYLQMNSLKPEDTAVYYCAAYSRVVPSFYYWGQGTQVTVSS” the “polyreactivity (PSR sort gate)” value was “low polyreactivity”. In the case of “QVQLVESGGGLVQAGGSLRLICAASGSTFVRNAMGWYRQSPGKEREFVAAIRRSGGSTYYADSVKGRFTISRDNPKNTVYLQINSLKPEDTAVYDCAARNYYTYDYWGQGTQVTVSS”, the “polyreactivity (PSR sort gate)” value is reported as “high polyreactivity”. With “QVQLVESGGGLVQAGGSLRLICAASGSTFWSNAMGWYRQAPGKERELVATINSGDGTNYADSVKGRFTISRDNAKNTVYLQMNSLKPEDTAVYYCAAEKYYPWGWYTYDYWGQGTQVTVSS” the “polyreactivity (PSR sort gate)” value was “high polyreactivity”. With “QVQLVESGGGLVQAGGSLRLICAASGSTFYEYAMGWYRQAPGKERELVAAISSNGARTYYADSVKVRFTISRDNAKNTVYLQMISLKPEDTAVYYCALVYRYAHTKYDYWGQGTQVTVSS” the “polyreactivity (PSR sort gate)” value was “high polyreactivity”. In the case of “QVQLVESGGGLVQAGGSLRLICAASGSTFYPNAIGWYRQAPGKERELVAAISYTGGRTYYADSVKGRFTISRDNAKNTVYLQMNSLKPEDTAVYYCAVLVVGSTTQDEPYFCGVEHDYWGQGTQVTVSS”, the “polyreactivity (PSR sort gate)” value is reported as “low polyreactivity”. With “QVQLVESGGGLVQAGGSLRLICAASGSTFYWYMGWYRQAPGKERELVAAITSGGRTYYADSVKGRFTISRDNAKNTVYLQMNSLKPEDTAVYYCATTRRYAYRGGHNYWGQGTQVTVSS” the “polyreactivity (PSR sort gate)” value was “high polyreactivity”.
